Measurements as given in US20040063913A1 (Novartis, published 2004).
Where “and” joins values, the source holds several entries; their conditions need not be identical. Equal values may be shown once.

T1: Rec Human IL-1α (human, UniProt P01583 113-271)
T1 construct: also called human IL-1alpha
T1 sequence (looked up): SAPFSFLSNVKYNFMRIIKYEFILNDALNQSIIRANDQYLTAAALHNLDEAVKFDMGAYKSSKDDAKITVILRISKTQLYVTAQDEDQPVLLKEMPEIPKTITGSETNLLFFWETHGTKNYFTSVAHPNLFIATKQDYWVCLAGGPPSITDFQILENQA


Tests used:
[1] = target: naturally produced IL-1β in conditioned medium from peripheral blood mononuclear cells (human, UniProt P01584 117-269, limits assumed); assay: cell-based or functional assay
Rec Human IL-1α = target: T1, Rec Human IL-1α; assay: Biacore, ACZ885 immobilized
Rec Cynomolgus IL-1β = target: T2, Rec Cynomolgus IL-1β (cynomolgus, UniProt P79182 117-268); assay: Biacore, ACZ885 immobilized
T2 construct: also called Rec Cynomolgus IL-β; cynomolgous IL-1beta

[2] = target: T3, IL-1β derived from rhesus monkeys (rhesus monkey, UniProt P48090 117-269); assay: not named
T3 construct: also called rhesus IL-1β

recombinant human IL-1β = target: T4, recombinant human IL-1β (human, UniProt P01584 117-269); assay: Biacore competition: ACZ885 immobilized on the chip, recombinant human IL-1β (1 nM) injected with increasing soluble IL-1 receptor type I (0-12 nM); % binding of IL-1β to ACZ885; mean ± SEM, n=4
T4 construct: mature; also called Rec Human IL-1β; recombinant human IL-1beta
Experimental: Half-maximum values (IC₅₀) were determined graphically using the Origin 6.0 software The mean±SEM is given (n=4).

Binder	IC50, inhibition of IL-1β-induced IL-6 secretion from human dermal fibroblasts, cond. medium (NVP-ACZ885 Batch1) [1]	IC50, inhibition of IL-1β-induced IL-6 secretion from human dermal fibroblasts, cond. medium (NVP-ACZ885 Batch2) [1] [ng/mL]	binding result (Rec Human IL-1α)	binding result (Rec Cynomolgus IL-1β)	binding result [2]	IC50 (recombinant human IL-1β) [nM]
ACZ 885 antibody (antibody, human IgG1, V domains shown, also called NVP-ACZ885) VH: QVQLVESGGGVVQPGRSLRLSCAASGFTFSVYGMNWVRQAPGKGLEWVAIIWYDGDNQYYADSVKGRFTISRDNSKNTLYLQMNGLRAEDTAVYYCARDLRTGPFDYWGQGTLVTVSS VL: EIVLTQSPDFQSVTPKEKVTITCRASQSIGSSLHWYQQKPDQSPKLLIKYASQSFSGVPSRFSGSGSGTDFTLTINSLEAEDAAAYYCHQSSSLPFTFGPGTKVDIK	54 pM and 9.1 ng/ml	7.4	no binding (tested: 8 nM)	no binding (tested: 8 nM)	no binding	
recombinant human soluble IL-1 type I receptor (receptor, UniProt P14778 18-332, looked up, Called soluble; also called soluble human IL-1 type I receptor; recombinant human soluble receptor I) LEADKCKEREEKIILVSSANEIDVRPCPLNPNEHKGTITWYKDDSKTPVSTEQASRIHQHKEKLWFVPAKVEDSGHYYCVVRNSSYCLRIKISAKFVENEPNLCYNAQAIFKQKLPVAGDGGLVCPYMEFFKNENNELPKLQWYKDCKPLLLDNIHFSGVKDRLIVMNVAEKHRGNYTCHASYTYLGKQYPITRVIEFITLEENKPTRPVIVSPANETMEVDLGSQIQLICNVTGQLSDIAYWKWNGSVIDEDDPVLGEDYYSVENPANKRRSTLITVLNISEIESRFYKHPFTCFAKNTHGIDAAYIQLIYPVT						0.68
